Source: patent CN116514981A (JIANGSU QUANXIN BIOMEDICAL CO LTD, dated 2023)

Assays:
人IL-23 (Bio IL-23) = molecular target: T1, 人IL-23 (Bio IL-23) (human, UniProt Q9NPF7 20-189; P29460 23-328, biotin-labelled (Bio IL-23); sites not stated); assay: ELISA: Bio IL-23 at 1 μg/ml captured on Neutravidin, antibody in serial dilution
T1 construct: also called hIL-23
T1 sequence (looked up) 1: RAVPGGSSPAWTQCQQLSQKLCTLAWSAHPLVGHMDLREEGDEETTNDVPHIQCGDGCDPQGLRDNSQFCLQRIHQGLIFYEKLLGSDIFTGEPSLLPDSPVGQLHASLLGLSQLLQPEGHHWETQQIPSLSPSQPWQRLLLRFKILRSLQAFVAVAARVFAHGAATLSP
T1 sequence (looked up) 2: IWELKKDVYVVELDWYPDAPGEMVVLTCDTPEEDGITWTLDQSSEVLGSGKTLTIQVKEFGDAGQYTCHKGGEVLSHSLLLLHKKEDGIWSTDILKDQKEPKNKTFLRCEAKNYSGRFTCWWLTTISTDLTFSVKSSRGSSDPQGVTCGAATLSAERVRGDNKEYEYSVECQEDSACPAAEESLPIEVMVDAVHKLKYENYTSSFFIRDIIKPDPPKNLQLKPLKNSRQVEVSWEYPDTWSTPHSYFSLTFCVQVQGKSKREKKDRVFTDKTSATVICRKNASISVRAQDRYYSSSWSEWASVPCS

人IL-12 (Bio IL-12) = molecular target: T2, 人IL-12 (Bio IL-12) (human, UniProt P29459 23-219; P29460 23-328, biotin-labelled (Bio IL-12); sites not stated); assay: ELISA: Bio IL-12 at 1 μg/ml captured on Neutravidin, antibody in serial dilution
T2 construct: the p35 subunit is supplied from general knowledge
T2 sequence (looked up) 1: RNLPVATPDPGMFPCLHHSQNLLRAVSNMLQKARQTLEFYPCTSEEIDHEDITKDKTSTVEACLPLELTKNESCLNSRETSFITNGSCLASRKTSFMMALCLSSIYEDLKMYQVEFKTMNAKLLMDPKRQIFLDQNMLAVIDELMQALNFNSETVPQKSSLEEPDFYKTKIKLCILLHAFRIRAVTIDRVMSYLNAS
T2 sequence (looked up) 2: T1 sequence (looked up) 2

B1: 抗人IL-23P19单克隆抗体(第一抗体) (antibody, V domains shown)
VH: QEQLEESGGGLVKPGGTLTLTCKASGFDFTTYNYMCWVRQAPGKGLEWIACIYTTKTNTWYASWAKGRFTISKTSSTTVTLQMTSLTAADTATYFCARGGWDNLSLWGPGTLVTVSS
VL: AALTQTPASVSAAVGGTVTIKCQSSQSVYSNNYLAWYQQKPGQPPKVLIYAASTLASGVPSRFSGSGSGTQFTLTISGVQCDDAATYYCLGGYDDDAVFGGGTEVVVKG
notes: also called 抗人IL-23第一抗体; 包被抗体
B1: binds (人IL-23 (Bio IL-23)); no binding (人IL-12 (Bio IL-12)).
